Measurements published in US5981483A, “Compositions comprising modulators of cytokines of the TGF-β superfamily” (Mount Sinai Hospital Corporation, priority 1997, dated 1999).

Columns and labels:
[1] = system: rat bone marrow stromal cells; experiment: Dexamethasone-treated rat bone marrow stromal cell cultures (proliferation, mineralization, TGF-β levels); type: cell-based
Protocol: The methods used in the studies described in this example and illustrated in FIGS. 16 and 17 are as follows. Femoral bones were removed under aseptic conditions from adult male Wistar rats (120 g), cleaned of adherent soft tissues, and washed extensively in antibiotics. The distal ends were removed and the marrow contents were flushed out with 10 ml of culture medium. The cells were dispersed by repeated passage through a 20 gauge needle and incubated in alpha-MEM supplemented with 15% fetal bovine serum, ascorbic acid (50 μg/ml), antibiotics (penicillin G 100 μg/ml, gentamicin 50 μg/ml, fungizone 0.3 μg/ml) and 10 mM β-glycerophosphate. […] Following 6 days of culture at 37° C. in a humidified atmosphere containing 5% CO2 in air, the cells were re-plated at a density of 1×10^2 cell/mm^2 in 96 multi-well plates (Falcon 3047), and grown for another 12-14 days. At the end of culture, the cells were fixed and stained for calcium with alizarin red-s for quantification of bone nodule area (reported as mineralized area (mm^2)/well). To assess mineralized tissue formation in the cultures morphometric measurements were carried out with the aid of a Bioquant IV system (Bioquant, Nashville, Tenn., U.S.A.) using a Leitz Orthoplan microscope. TGF-β in culture supernatants taken 4 days prior to scoring mineralization were measured with and without heat activation (80° C. for 10 min) using the Mink cells as the indicator cell line as described in FIG. 12.

TGF-β1 binding to TβRII = target: T1, TGF-β1 binding to TβRII (Homo sapiens, UniProt P01137); experiment: Competition of TGF-β1 binding to immobilized TβRII (Quantikine ELISA); details: 40 pM TGF-β1; fetuin 40 μM, TRH1 peptide from TβRII 20 μM; FIG. 14
T1 construct: The mature processed cytokines produced from the members of the gene family show almost 100% amino acid identity between species; purchased R&D Systems
Protocol: Inhibition of TGF-β1 binding to TβRII was carried out using the Quantikine ELISA kit (R&D Systems). In particular, 96 well plates were pre-coated with the extracellular domain of TβRII. […] This was followed by a 5 minute incubation with the TβRII coated ELISA wells with shaking, washing as recommended, and a 1 hr incubation with the polyclonal anti-TGF-β1 antibody. Plates were developed as per the instructions, and determinations were made in triplicate.

TGF-β1 = target: T2, TGF-β1 (Homo sapiens, UniProt P01137); experiment: BIAcore surface plasmon resonance, binding to immobilized TGF-β1; details: ligand TGF-β1
T2 construct: The mature processed cytokines produced from the members of the gene family show almost 100% amino acid identity between species; purchased Collaborative Research (Bedford, Mass.)
Protocol: (§1) In this system, a purified protein serving as the ligand is covalently coupled to a carboxymethylated dextran surface, and binding molecules (i.e. the analyte) are passed in a fluid phase across the surface. Binding of the analyte to ligand causes a change in reflected light which is directly proportional to mass bound, and is measured in arbitrary response units (R.U.). Analyte-ligand binding is observed as both increasing response with time during the injection of analyte, and the difference in the position of the baseline before and after injection.
(§2) Schuster, R. V. Swanson, L. A. Alex, R. B. Bourret, M. I. Simon, Nature 365, 343 (1993). 1000 R.U. equals approximately 1 ng/mm^2. The running buffer was 20 mM Hepes (pH 7.2), 150 mM NaCl and the flow rate for all sensorgrams was 3 μl/min.
(§3) Regeneration of the surface to remove bound analyte was done by injection of 10 μl of 20 mM NaOH. To cyclize TRH1 peptides, the material was reduced with 5 mM DTT then brought to a final concentration of 60 μM in 25 mM ammonium acetate (pH 8.5). After stirring in the dark for 30 min at 20° C. with 30 mM potassium ferricyanide, the peptide was mixed with AG3-X4A resin (BioRad), filtered, lyophilization and desalted on a 50×2.5 cm column of Biogel P2 (Pharmacia) developed in water, and further purified by reverse phase HPLC.
Injection volumes were 36 μl for FIG. 2, 4 and 5 and 45 μl for FIG. 3. […] Protein concentrations in each experiment were (FIGS. 2 and 3), 2, 5, 10, 20, 30, 40 μM; (FIG. 4), 0.21, 0.31, 0.41, 0.62, 0.82, 1.24 μM; (FIG. 5), 0.22, 0.29, 0.44, 0.59, 0.88 μM. R.U. for the immobilized cytokine in each experiment was 2850 R.U. for FIGS. 2 and 3; 7450 R.U. for FIG. 4, and 5300 R.U., for FIG. 5 respectively.
(§4) Data was analyzed using the BIA-evaluation software (Pharmacia Biosensor). The association rate constant, kass, was calculated by first plotting the change in response with time versus response (i.e. dR/dT vs R). When the slope of the line from this graph is plotted versus analyte concentration (i.e d(dR/dT)/dR vs C), kass is obtained from the slope of the line. The dissociation rate constant, kdiss, is obtained during the decrease in response with time after analyte injection is discontinued. Specifically, kdiss was obtained from the slope of the line in a plot of ln(Rt1 /Rtn) vs time. The affinity constants were calculated from KD =kdiss /kass. Variance for kass is standard error of the linear regression plot, and for kdiss values are the mean ± range of 3 or more independent injections.

BMP-4 = target: T3, BMP-4 (Homo sapiens, UniProt P12644); experiment: BIAcore surface plasmon resonance, binding to immobilized BMP-4; details: Table 2 (calculations repeated); ligand BMP-4; KD = kdiss/kass
T3 sequence (P12644 293-408): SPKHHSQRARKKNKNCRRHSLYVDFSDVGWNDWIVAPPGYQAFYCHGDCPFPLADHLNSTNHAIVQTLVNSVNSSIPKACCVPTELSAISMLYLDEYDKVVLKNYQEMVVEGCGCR
Protocol: as §1, §2
Regeneration of the surface to remove bound analyte was done by injection of 10 μl of 20 mM NaOH. To cyclize TRH1 peptides, the material was reduced with 5 mM DTT then brought to a final concentration of 60 μM in 25 mM ammonium acetate (pH 8.5). […]
Data was analyzed using the BIA-evaluation software (Pharmacia Biosensor). The association rate constant, kass, was calculated by first plotting the change in response with time versus response (i.e. dR/dT vs R). […] The affinity constants were calculated from KD =kdiss /kass. […]

TGF-β2 = target: T4, TGF-β2 (Homo sapiens, UniProt P61812); experiment: BIAcore surface plasmon resonance, binding to immobilized TGF-β2; details: ligand TGF-β2
T4 construct: The mature processed cytokines produced from the members of the gene family show almost 100% amino acid identity between species
T4 sequence (P61812 303-414 limits assumed): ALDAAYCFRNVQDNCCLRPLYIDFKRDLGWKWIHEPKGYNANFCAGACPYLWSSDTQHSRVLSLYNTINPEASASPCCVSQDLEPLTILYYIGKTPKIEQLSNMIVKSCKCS
Protocol: as §1, §2, §3
as §4, with “Variance for kass is standard error of the linear regression plot, and for kdiss values are the mean ± range of 3 or more independent injections.” left out

[2] = Table 2 (calculations repeated)

T2 sequence (P01137 279-390 limits assumed): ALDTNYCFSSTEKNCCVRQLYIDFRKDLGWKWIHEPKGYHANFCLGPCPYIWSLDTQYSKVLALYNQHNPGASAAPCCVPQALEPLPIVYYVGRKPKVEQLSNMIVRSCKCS
T1 sequence (P01137 279-390 limits assumed): as above

Fetuin: Bovine fetal fetuin, glycoprotein obtained by ammonium sulfate fractionation of FCS and gel filtration (Sigma)
BMP-2 induced osteogenesis in the cultures ([1]; data not shown): could be blocked
deposition of calcium-containing matrix ([1]; dexamethasone-treated bone marrow cultures, latter two weeks, FIGS. 16 and 18): inhibited deposition of calcium-containing matrix
cell number during the first week of culture (proliferative phase) ([1]; dexamethasone-treated, FIG. 15): stimulated an increase in cell number
inhibition of TGF-β1 binding to immobilized recombinant TβRII (TGF-β1 binding to TβRII): competitive inhibitors
kass (TGF-β1; Table 1): 670 ± 400 M⁻¹ s⁻¹
kass (TGF-β1; Table 1, listed as fetuin): 670 M⁻¹ s⁻¹
kdiss (TGF-β1; Table 1, listed as fetuin): 0.16 s⁻¹
kass (TGF-β1; [2]): 870 ± 270 M⁻¹ s⁻¹
kdiss (TGF-β1; [2]): 0.0019 s⁻¹
Kd (TGF-β1; Table 2 (calculations repeated), KD = kdiss/kass, listed as b-Fetuin): 2.2 µM
Kd (BMP-4): 0.12 µM
kass (TGF-β2; Table 1): 550 ± 120 M⁻¹ s⁻¹
kass (TGF-β2; [2]): 550 ± 120 M⁻¹ s⁻¹
